The values that follow come from article PMC4084727.

For series [1], the target named is T1, GST-Freud-2 (GST-hF2) (Homo sapiens, UniProt Q5T0F9 1-858).
T1 sequence: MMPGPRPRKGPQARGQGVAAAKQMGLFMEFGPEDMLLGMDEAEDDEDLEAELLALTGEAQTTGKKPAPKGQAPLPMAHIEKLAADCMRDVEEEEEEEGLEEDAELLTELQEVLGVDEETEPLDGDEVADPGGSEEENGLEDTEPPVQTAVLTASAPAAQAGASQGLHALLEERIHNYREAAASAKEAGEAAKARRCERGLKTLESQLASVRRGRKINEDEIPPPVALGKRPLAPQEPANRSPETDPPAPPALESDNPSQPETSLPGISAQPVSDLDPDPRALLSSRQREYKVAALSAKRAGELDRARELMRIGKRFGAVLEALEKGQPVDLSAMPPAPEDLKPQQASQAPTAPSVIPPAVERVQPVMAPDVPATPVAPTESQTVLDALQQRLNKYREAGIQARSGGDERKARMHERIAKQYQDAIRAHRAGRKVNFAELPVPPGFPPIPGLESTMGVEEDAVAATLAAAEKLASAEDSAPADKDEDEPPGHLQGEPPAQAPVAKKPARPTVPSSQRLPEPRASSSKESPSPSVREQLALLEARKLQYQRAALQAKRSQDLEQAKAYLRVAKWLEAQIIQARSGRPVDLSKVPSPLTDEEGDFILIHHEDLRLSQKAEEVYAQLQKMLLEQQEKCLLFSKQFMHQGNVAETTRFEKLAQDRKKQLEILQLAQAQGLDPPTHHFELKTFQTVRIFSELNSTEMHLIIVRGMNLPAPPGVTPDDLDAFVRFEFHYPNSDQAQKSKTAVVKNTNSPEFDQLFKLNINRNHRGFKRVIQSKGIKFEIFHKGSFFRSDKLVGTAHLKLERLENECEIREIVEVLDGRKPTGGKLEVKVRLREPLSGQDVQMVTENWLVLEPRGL
Kind of series: competition.

For series [2], the target named is T1, GST-Freud-2 (GST-hF2). The series is described as follows: EMSA. (In general: Mobility shift assays separate free from complexed probe on a gel.)
Series [3] addresses T1, GST-Freud-2 (GST-hF2). The series is described as follows: EMSA. This is another data set of the same source.
Series [4] concerns the target T1, GST-Freud-2 (GST-hF2). The series is described as follows: competition. This is another data set of the same source.
The target in series [5] is T1, GST-Freud-2 (GST-hF2). Kind of series: competition. This is another data set of the same source.

B1: 19-bp 3' (-1597/-1578) (dsDNA)
DNA 1: AGGTGGCGACATAAAACCT
DNA 2: AGGTTTTATGTCGCCACCT
As for B1, the binding result in the series with GST-Freud-2 (GST-hF2) [1] was “binds”.

B2: 3'-DRE (-1597/-1565) (dsDNA)
DNA 1: AGGTGGCGACATAAAACCTCATTGCTTAGAACT
DNA 2: AGTTCTAAGCAATGAGGTTTTATGTCGCCACCT
For the molecule B2, the binding result with GST-Freud-2 (GST-hF2) [2] is on record as “binds”.

B3: 5'-DRE (-1624/-1598) (dsDNA)
DNA 1: AGATGGCACTCTAAAACATTTGCCAGA
DNA 2: TCTGGCAAATGTTTTAGAGTGCCATCT
With B3, the binding result in the series with GST-Freud-2 (GST-hF2) [3] is “binds”.

B4: 12-bp 3' (-1578/-1566) (dsDNA)
DNA 1: CATTGCTTAGAA
DNA 2: TTCTAAGCAATG
With B4, in the series with GST-Freud-2 (GST-hF2) [4], the binding result is reported as “no binding”.

B5: 17-bp 5' (-1624/-1608) (dsDNA)
DNA 1: AGATGGCACTCTAAAAC
DNA 2: GTTTTAGAGTGCCATCT
As to B5, the binding result with GST-Freud-2 (GST-hF2) [5] is recorded as “binds”.

B6: 16-bp 5' (-1613/-1598) (dsDNA)
DNA 1: TAAAACATTTGCCAGA
DNA 2: TCTGGCAAATGTTTTA
Regarding B6, in the series with GST-Freud-2 (GST-hF2) [5], the binding result is “binds”.
